# Laboratory results as given in patent US20080311034A1 (published 2008).
# Experiments:
# [1] = molecular target: T1, recombinant human His-tagged FcγRI (extracellular domain, R&D Systems #1257-FC-050) (human, UniProt P12314 16-292); assay: ELISA, His-tagged FcγRI captured on HisGrab plate
# T1 construct: extracellular domain; Bought; also called CD64; recombinant, soluble, human FcγRI
# Method: (§1) FcγRI (CD64) ELISA —50 μl of a 1 μg/ml solution of recombinant human His-tagged FcγRI (extracellular domain, R&D Systems #1257-FC-050) in ELISA buffer (PBS, pH 7.4, 4 mg/ml BSA, 0.01% Tween-20) was added to each well of HisGrab 96 well plates (Pierce #15142) (Powers G., Notebook 9006, pp. 166-168, 180-181). The plate was incubated with shaking for 3 hours. The plates were washed 3× with 300 μl of wash buffer (PBS, 0.01% Tween-20) on a plate washer. Serial dilutions of the CNTO860 antibody Fc-variant samples were made in ELISA buffer and 50 μl per well of each titration were added in duplicate to the FcγRI-coated plates. The plates were incubated with shaking for 1 hour. The plates were washed 3× with 300 μl of wash buffer on a plate washer. 50 μl of a 1:10,000 dilution of HRP-labeled goat F(ab′)₂ anti-human IgG F(ab′)₂ (Jackson Immunoresearch # 109-036-097) in ELISA buffer was added to each well. The plates were incubated with shaking for 30 minutes. The plates were washed 3× with 300 μl of wash buffer on the plate washer. 50 μl per well TMB substrate (RDI #RDI-TMBSU-1L) was added to each well and developed for 5 minutes. The reaction was stopped by adding 100 μl 0.2 N sulfuric acid. The plates were read at OD450 on an Envision plate reader.
# [2] = molecular target: T2, recombinant human His-tagged FcγRIIIa (extracellular domain made at Centocor) (human, UniProt P08637 17-208); assay: ELISA, His-tagged FcγRIIIa captured on HisGrab plate
# T2 construct: extracellular domain; also called CD16a; recombinant, soluble, human FcγRIIIa
# T2 sequence (P08637 17-208): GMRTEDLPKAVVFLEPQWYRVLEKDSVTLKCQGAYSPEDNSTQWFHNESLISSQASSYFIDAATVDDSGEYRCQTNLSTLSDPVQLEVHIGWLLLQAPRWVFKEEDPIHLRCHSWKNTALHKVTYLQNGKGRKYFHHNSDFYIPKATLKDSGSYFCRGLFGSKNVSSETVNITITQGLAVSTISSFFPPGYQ
# Method: (§2) FcγRIIIa (CD16a) ELISA—A human FcγRIIIa binding assay was done in ELISA format similar to the assay for FcγRI above. 50 μl of a 2 μg/ml solution of recombinant human His-tagged FcγRIIIa (extracellular domain made at Centocor) in ELISA buffer (PBS, 4 mg/ml BSA, 0.01% Tween-20) was added to each well of HisGrab 96 well plates (Pierce #15142) (Powers G., Notebook 10378, 19-23). The plate was incubated for 3 hours at room temp. The plates were blocked with 200 μl of Starting Block (Pierce #15142) for 30 min, and then washed 3× with 300 μl of wash buffer (PBS, 0.01% Tween-20) on a plate washer. Serial dilutions of the CNTO 860 test samples were made in Starting Block buffer and 50 μl per well of each titration were added in duplicate to the FcγRIIIa-coated plates. The plates were incubated for 1 hour. The plates were washed 3× with 300 μl of wash buffer on a plate washer. 50 μl of a 1:10,000 dilution of HRP-labeled goat F(ab′)2 anti-human IgG F(ab′)2 (Jackson Immunoresearch # 109-036-097) in Starting Block buffer was added to each well. The plates were incubated for 30 minutes. The plates were washed 3× with 300 μl of wash buffer on the plate washer. 50 μl per well TMB substrate (RDI #RDI-TMBSU-1L) was added to each well and developed for 3-5 minutes. The reaction was stopped by adding 100 μl 10.2 N sulfuric acid. The plates were read at OD450 on an Envision plate reader. Antibody concentration vs OD450 values were graphed for each CNTO 860 variant and the antibody concentration needed to achieve an OD450 reading of 0.14 established by interpolation within each data curve.
# [3] = molecular target: T2, recombinant human His-tagged FcγRIIIa …; assay: ELISA
# Method: as §1
# as §2, with “minutes.” for “minutes. The plates were washed 3× with 300 μl of wash buffer on the plate washer. 50 μl per well TMB substrate (RDI #RDI-TMBSU-1L) was added to each well and developed for 3-5 minutes. The reaction was stopped by adding 100 μl 10.2 N sulfuric acid. The plates were read at OD450 on an Envision plate reader. Antibody concentration vs OD450 values were graphed for each CNTO 860 variant and the antibody concentration needed to achieve an OD450 reading of 0.14 established by interpolation within each data curve.”
# [4] = molecular target: FcγRIIIa on NK cells of human PBMC (human, UniProt P08637 17-254); assay: cell-based or functional assay
# FcγRIIIa on NK cells of human PBMC, sequence (P08637 17-254): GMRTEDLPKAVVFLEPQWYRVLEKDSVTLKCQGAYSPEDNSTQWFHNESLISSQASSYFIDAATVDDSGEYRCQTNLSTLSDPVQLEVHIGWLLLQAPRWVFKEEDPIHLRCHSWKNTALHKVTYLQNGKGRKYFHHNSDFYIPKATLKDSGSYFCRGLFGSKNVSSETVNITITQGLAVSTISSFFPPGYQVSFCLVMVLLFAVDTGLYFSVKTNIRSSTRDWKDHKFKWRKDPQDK
# T1 sequence (P12314 16-292): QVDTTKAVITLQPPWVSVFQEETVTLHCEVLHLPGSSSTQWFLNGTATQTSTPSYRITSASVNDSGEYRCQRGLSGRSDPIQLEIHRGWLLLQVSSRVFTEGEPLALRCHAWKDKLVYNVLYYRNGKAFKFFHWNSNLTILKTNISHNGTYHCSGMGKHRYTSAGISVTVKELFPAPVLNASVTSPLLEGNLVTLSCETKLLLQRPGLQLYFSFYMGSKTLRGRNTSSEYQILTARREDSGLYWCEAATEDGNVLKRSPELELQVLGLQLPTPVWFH
Binder,concentration (ng/ml) required for an O.D. value of 1.0 [1] [ng/mL],concentration (ng/ml) required for an O.D. value of 0.14 [2] [ng/mL],fold better binding than WT from CHO [3] [fold],"EC25 (ng/ml), ADCC of HCT116 cells by human PBMC [4] [ng/mL]",fold better binding than WT from CHO cells [3] [fold],fold better binding than WT from YB2/0 cells [3] [fold]
"CHO-CNTO 860 WT (antibody, human IgG1, kappa, N-linked glycan at heavy chain Asn297 (CHO-type, highly fucosylated); not carried by the letters, Anti-human tissue factor human IgG1/kappa; transiently expressed in CHO cells (plasmids p4145/p4146; CHO Abs typically 95% fucosylated), purified by protein A; also called CNTO 860 WT from CHO cells; WT (CHO cell-derived); copies: 2 + 2) heavy: not shown light: DIQMTQSPSSLSASVGDRVTITCKASQDIRKYLNWYQQKPGKAPKLLIYYATSLADGVPSRFSGSGSGTDYTFTISSLQPEDIATYYCLQHGESPYTFGQGTKLEITRTVAAPSVFIFPPSDEQLKSGTASVVCLLNNFYPREAKVQWKVDNALQSGNSQESVTEQDSKDSTYSLSSTLTLSKADYEKHKVYACEVTHQGLSSPVTKSFNRGEC",480,4500,,,,
"CHO-CNTO 860 A330Y (antibody, human IgG1, kappa, N-linked glycan at Asn297 of the heavy chain (CHO-type, highly fucosylated); not carried by the letters, IgG1/kappa Fc variant; transiently expressed in CHO cells (p4183/p4146); EU numbering; also called A330Y (CHO cell-derived); copies: 2 + 2) heavy: not shown light: DIQMTQSPSSLSASVGDRVTITCKASQDIRKYLNWYQQKPGKAPKLLIYYATSLADGVPSRFSGSGSGTDYTFTISSLQPEDIATYYCLQHGESPYTFGQGTKLEITRTVAAPSVFIFPPSDEQLKSGTASVVCLLNNFYPREAKVQWKVDNALQSGNSQESVTEQDSKDSTYSLSSTLTLSKADYEKHKVYACEVTHQGLSSPVTKSFNRGEC",420,3300,,4,,
"CHO-CNTO 860 I332E/A330I (antibody, human IgG1, kappa, Heavy chain N297 carries the CHO-type N-linked glycan (about 95% fucosylated); not carried by the letters., IgG1/kappa Fc variant; transiently expressed in CHO cells (p4185/p4146); EU numbering; also called A330I/I332E (CHO cell-derived); A330I/I332E variant from CHO cells; copies: 2 + 2) heavy: not shown light: DIQMTQSPSSLSASVGDRVTITCKASQDIRKYLNWYQQKPGKAPKLLIYYATSLADGVPSRFSGSGSGTDYTFTISSLQPEDIATYYCLQHGESPYTFGQGTKLEITRTVAAPSVFIFPPSDEQLKSGTASVVCLLNNFYPREAKVQWKVDNALQSGNSQESVTEQDSKDSTYSLSSTLTLSKADYEKHKVYACEVTHQGLSSPVTKSFNRGEC",420,520,,1.2,~8,
"CHO-CNTO 860 A330I (antibody, IgG1, N-linked glycan at Asn297 of the heavy chain (CHO-type, highly fucosylated); not carried by the letters, IgG1/kappa Fc variant; EU numbering; also called A330I (CHO cell-derived); copies: 2 + 2) heavy: not shown light: DIQMTQSPSSLSASVGDRVTITCKASQDIRKYLNWYQQKPGKAPKLLIYYATSLADGVPSRFSGSGSGTDYTFTISSLQPEDIATYYCLQHGESPYTFGQGTKLEITRTVAAPSVFIFPPSDEQLKSGTASVVCLLNNFYPREAKVQWKVDNALQSGNSQESVTEQDSKDSTYSLSSTLTLSKADYEKHKVYACEVTHQGLSSPVTKSFNRGEC",750,19000,,,,
"YB2/0-CNTO 860 A330I (antibody, IgG1, N-linked glycan at heavy chain Asn297 (YB2/0-type, low fucose); not carried by the letters, IgG1/kappa Fc variant; stably expressed in YB2/0 cells (p4177/p2402); EU numbering; also called A330I (YB2/0 cell-derived); A330I mutant expressed in YB2/0 cells; copies: 2 + 2) heavy: not shown light: DIQMTQSPSSLSASVGDRVTITCKASQDIRKYLNWYQQKPGKAPKLLIYYATSLADGVPSRFSGSGSGTDYTFTISSLQPEDIATYYCLQHGESPYTFGQGTKLEITRTVAAPSVFIFPPSDEQLKSGTASVVCLLNNFYPREAKVQWKVDNALQSGNSQESVTEQDSKDSTYSLSSTLTLSKADYEKHKVYACEVTHQGLSSPVTKSFNRGEC",570,1200,,0.7,,
"CHO-CNTO 860 I332E/S239D (antibody, human IgG1, kappa, Heavy chain N297 carries the CHO-type N-linked glycan (about 95% fucosylated); not carried by the letters., IgG1/kappa Fc variant; transiently expressed in CHO cells (p4186/p4146); EU numbering; also called S239D/I332E (CHO cell-derived); copies: 2 + 2) heavy: not shown light: DIQMTQSPSSLSASVGDRVTITCKASQDIRKYLNWYQQKPGKAPKLLIYYATSLADGVPSRFSGSGSGTDYTFTISSLQPEDIATYYCLQHGESPYTFGQGTKLEITRTVAAPSVFIFPPSDEQLKSGTASVVCLLNNFYPREAKVQWKVDNALQSGNSQESVTEQDSKDSTYSLSSTLTLSKADYEKHKVYACEVTHQGLSSPVTKSFNRGEC",480,600,,0.7,,
"YB2/0-CNTO 860 A330I/I332E (antibody, human IgG1, kappa, N-linked glycan at heavy chain Asn297 (YB2/0-type, low fucose); not carried by the letters, IgG1/kappa Fc variant; stably expressed in YB2/0 cells (p4178/p2402); EU numbering; also called A330I/I332E (YB2/0 cell-derived); A330I/I332E from YB2/0 cells; copies: 2 + 2) heavy: not shown light: DIQMTQSPSSLSASVGDRVTITCKASQDIRKYLNWYQQKPGKAPKLLIYYATSLADGVPSRFSGSGSGTDYTFTISSLQPEDIATYYCLQHGESPYTFGQGTKLEITRTVAAPSVFIFPPSDEQLKSGTASVVCLLNNFYPREAKVQWKVDNALQSGNSQESVTEQDSKDSTYSLSSTLTLSKADYEKHKVYACEVTHQGLSSPVTKSFNRGEC",310,240,,0.15,,6

# Continued, values first:
concentration (ng/ml) required for an O.D. value of 1.0 [1] [ng/mL],concentration (ng/ml) required for an O.D. value of 0.14 [2] [ng/mL],fold better binding than WT from CHO [3] [fold],"EC25 (ng/ml), ADCC of HCT116 cells by human PBMC [4] [ng/mL]",fold better binding than WT from CHO cells [3] [fold],fold better binding than WT from YB2/0 cells [3] [fold],Binder
420,1500,~3,,,,"YB2/0-CNTO 860 WT (antibody, human IgG1, kappa, Heavy chain N297 carries the YB2/0-type N-linked glycan (40-60% fucosylated); not carried by the letters., Anti-human tissue factor human IgG1/kappa; stably expressed in rat YB2/0 cells (p2401/p2402; YB2/0 Abs typically 40-60% fucosylated), purified by protein A; also called WT (YB2/0 cell-derived); WT from YB2/0 cells; copies: 2 + 2) heavy: not shown light: DIQMTQSPSSLSASVGDRVTITCKASQDIRKYLNWYQQKPGKAPKLLIYYATSLADGVPSRFSGSGSGTDYTFTISSLQPEDIATYYCLQHGESPYTFGQGTKLEITRTVAAPSVFIFPPSDEQLKSGTASVVCLLNNFYPREAKVQWKVDNALQSGNSQESVTEQDSKDSTYSLSSTLTLSKADYEKHKVYACEVTHQGLSSPVTKSFNRGEC"
300,120,,0.2,,,"YB2/0-CNTO 860 S239D/I332E (antibody, human IgG1, kappa, N-linked glycan at heavy chain Asn297 (YB2/0-type, low fucose); not carried by the letters, IgG1/kappa Fc variant; stably expressed in YB2/0 cells (p4179/p2402); EU numbering; also called S239D/I332E (YB2/0 cell-derived); copies: 2 + 2) heavy: not shown light: DIQMTQSPSSLSASVGDRVTITCKASQDIRKYLNWYQQKPGKAPKLLIYYATSLADGVPSRFSGSGSGTDYTFTISSLQPEDIATYYCLQHGESPYTFGQGTKLEITRTVAAPSVFIFPPSDEQLKSGTASVVCLLNNFYPREAKVQWKVDNALQSGNSQESVTEQDSKDSTYSLSSTLTLSKADYEKHKVYACEVTHQGLSSPVTKSFNRGEC"
480,165,,0.12,,,"YB2/0-CNTO 860 V264I/I332E (antibody, human IgG1, kappa, N-linked glycan at heavy chain Asn297 (YB2/0-type, low fucose); not carried by the letters, IgG1/kappa Fc variant; stably expressed in YB2/0 cells (p4180/p2402); EU numbering; also called V264I/I332E (YB2/0 cell-derived); copies: 2 + 2) heavy: not shown light: DIQMTQSPSSLSASVGDRVTITCKASQDIRKYLNWYQQKPGKAPKLLIYYATSLADGVPSRFSGSGSGTDYTFTISSLQPEDIATYYCLQHGESPYTFGQGTKLEITRTVAAPSVFIFPPSDEQLKSGTASVVCLLNNFYPREAKVQWKVDNALQSGNSQESVTEQDSKDSTYSLSSTLTLSKADYEKHKVYACEVTHQGLSSPVTKSFNRGEC"
420,340,,0.4,,,"YB2/0-CNTO 860 A330Y (antibody, human IgG1, kappa, N-linked glycan at heavy chain Asn297 (YB2/0-type, low fucose); not carried by the letters, IgG1/kappa Fc variant; stably expressed in YB2/0 cells (p4176/p2402); EU numbering; also called A330Y (YB2/0 cell-derived); copies: 2 + 2) heavy: not shown light: DIQMTQSPSSLSASVGDRVTITCKASQDIRKYLNWYQQKPGKAPKLLIYYATSLADGVPSRFSGSGSGTDYTFTISSLQPEDIATYYCLQHGESPYTFGQGTKLEITRTVAAPSVFIFPPSDEQLKSGTASVVCLLNNFYPREAKVQWKVDNALQSGNSQESVTEQDSKDSTYSLSSTLTLSKADYEKHKVYACEVTHQGLSSPVTKSFNRGEC"
